Assay results reported in the supplement of paper PMC9732359.
± gives the uncertainty stated by the source.

Assay: protein stability index of a GFP-peptide fusion (yeast GPS) (PSI 1-4); higher = more stable; sorted into four equal gates, so the index is relative within each strain
Conditions: doa10∆
Summary of the method: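 The protein stability index of a peptide was calculated by multiplying its read frequency in each gate by that gate's number and adding the products. The peptides were tiled 17-residue stretches of yeast proteins, fused downstream of GFP on a Cherry-expressing plasmid and carried in yeast as a pooled library. Mid-log cultures in leucine-free medium were sorted into four equal gates by GFP/Cherry ratio, and each gate's plasmids were PCR-amplified and Illumina-sequenced.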
With LKLPLEINYAFSMDEEF [SIR3] the protein stability index was 2.13 ± 0.07.

Same assay, conditions: pdr5∆
Sequence KYKQLLLKDDTYQLCVR [RPN3] has a protein stability index of 1.78 ± 0.29.
With KYLDQVLDHQRAIPFRR [RPL17B] the protein stability index was 2.35 ± 0.076.
Sequence KYLIKYNVFRQHTSFQE [CSI1] has a protein stability index of 1.2 ± 0.046.
For KYLKKRKIGISIDDHPY [RPC31], the protein stability index was 1.33 ± 0.081.
In the case of KYLSDIMELPGVYSDDE [SRP68], the protein stability index is reported as 3.08 ± 0.17.
Sequence KYPMYMQLEEELMKLDG [MED6] has a protein stability index of 1.44 ± 0.084.
With KYSAITSSIFQESFNSV [NUT1] the protein stability index was 2.37 ± 0.046.
In the case of KYYIVSSSKSMINDENY [SRB8], the protein stability index is reported as 2.76 ± 0.056.
For LAAMAVLESHWKQDLTK [PUP1], the protein stability index was 3.24 ± 0.14.
For LAASEIGISIVGRFSTI [ECM29], the protein stability index was 2.95 ± 0.078.
For LADSLDRCVDPEDPYFN [DIS3], the protein stability index was 2.64 ± 0.079.
Sequence LADWRIRPLSKPMTAYA [RRP6] has a protein stability index of 3.15 ± 0.13.
LAEKVEKASRQQRKQKK [RPS24A] showed a protein stability index of 3.33 ± 0.11.
Work on LAGKYIPNLTAKPFQVT [FAS1] yielded a protein stability index of 2.76 ± 0.053.
LAINAKTITSGLKYALA [RPB2] showed a protein stability index of 2.83 ± 0.073.
Sequence LAKAVAATIGANFIFSP [RPT4] has a protein stability index of 1.99 ± 0.042.
Work on LALEIIVRPAKGVATTR [RRP46] yielded a protein stability index of 2.18 ± 0.065.
LALPVFHIGYFKATIQI [RPO31] showed a protein stability index of 1.49 ± 0.043.
LALSSNISRDFQSYIVS [COR1] showed a protein stability index of 2.71 ± 0.084.
Sequence LAMVIIKEFVDDLKKDH [DSN1] has a protein stability index of 2.92 ± 0.16.
With LARASGNYVIIIGHNPD [RPL2A] the protein stability index was 2.89 ± 0.089.
LAVIMDNIGEIDESLFN [YCG1] gave a protein stability index of 3.1 ± 0.064.
LAYAVLGIALIALGEDI [RPN1] showed a protein stability index of 1.72 ± 0.094.
LCDNFNHFSLSYKDSGL [COR1] showed a protein stability index of 2.7 ± 0.069.
Work on LCYMAPMTVKLVQLPKS [POP3] yielded a protein stability index of 2.23 ± 0.063.
Sequence LDDFGEEELFEVTKEED [RRP43] has a protein stability index of 2.54 ± 0.15.
Work on LDDWISIGYETELKKIT [IRR1] yielded a protein stability index of 2.75 ± 0.078.
Sequence LDKNLIKLVKQNDELKF [RPC34] has a protein stability index of 1.21 ± 0.073.
In the case of LDLMFDEVYVQNSKFLK [YJL039C/NUP192], the protein stability index is reported as 2.94 ± 0.055.
Work on LDNLKLKELRIDNSPQA [GRR1] yielded a protein stability index of 2.72 ± 0.07.
LDPLEVHMLDFPNIAIR [PRP8] showed a protein stability index of 2.79 ± 0.056.
LDPSLRAPIYHSKFRSS [YML031W/NDC1] gave a protein stability index of 2.34 ± 0.064.
In the case of LDQLLVLEKKTRQASDL [RPN5], the protein stability index is reported as 2.95 ± 0.1.
LDQVGVPKSIAKTLTYP [RPO21] showed a protein stability index of 2.83 ± 0.051.
Sequence LDRELLKPSMSVALHRH [RPT3] has a protein stability index of 2.71 ± 0.1.
With LDRIPMHSYFIFKDLVT [COB] the protein stability index was 1.91 ± 0.12.
Work on LDTRKELWRKEQKLQTV [SMC3] yielded a protein stability index of 2.58 ± 0.081.
With LEEDSKKVNGTSYKKWS [PRP8] the protein stability index was 3.41 ± 0.15.
Work on LEFSALSAADIVAQSEV [RPO31] yielded a protein stability index of 3.13 ± 0.075.
Work on LEGEELAFYLRRLTAKK [RPS8A] yielded a protein stability index of 1.75 ± 0.068.
For LEGNDIHALAAKLLQEN [FAS1], the protein stability index was 2.95 ± 0.065.
With LEGSVSLPRFSKPVLIV [DIS3] the protein stability index was 2.57 ± 0.063.
With LEHLHSTAFQNTPLSLP [COR1] the protein stability index was 2.66 ± 0.033.
In the case of LEIDNKDSVTECSKDMK [SIR4], the protein stability index is reported as 3.53 ± 0.083.
With LEKCEAEFKKRKIEAET [YCS4] the protein stability index was 3.17 ± 0.084.
For LEKGEIELSDGSTFKVN [YJL039C/NUP192], the protein stability index was 3.1 ± 0.067.
Work on LEKLVDHHPEGLSAREA [PRE10] yielded a protein stability index of 2.9 ± 0.059.
For LELAGMDALYEKIWFAI [SIR3], the protein stability index was 1.53 ± 0.068.
For LELQVAKTFIDLESSSP [RPS7B], the protein stability index was 3.2 ± 0.063.
Work on LELRNSVMDDILEMMPE [PRP8] yielded a protein stability index of 3.26 ± 0.12.
LEQDLHFENAKVIDLDT [YIL149C/MLP2] gave a protein stability index of 3.32 ± 0.16.
Work on LEQREQNENLPSDKSDS [SSN2] yielded a protein stability index of 3.09 ± 0.071.
Sequence LERIVQIMQNPTHYKIP [RPS18A] has a protein stability index of 3.1 ± 0.11.
LESADKQLEKRDYQRIN [POP4] showed a protein stability index of 2.72 ± 0.055.
Work on LESKMSEVGDAFIFGLQ [SMC3] yielded a protein stability index of 3.28 ± 0.06.
With LEVFHHFFKWIEFIVYH [SRB8] the protein stability index was 1.11 ± 0.047.
Work on LEWLENPSNTPDKDYLL [FAS1] yielded a protein stability index of 3.21 ± 0.088.
Work on LFGGRHYLFNTFTFTAH [SWP82] yielded a protein stability index of 2.1 ± 0.035.
Sequence LFIGLFTRPLFVLLEIE [YCS4] has a protein stability index of 1.98 ± 0.083.
With LFKNYRFNFISKYFIID [YMR129W/POM152] the protein stability index was 1.41 ± 0.074.
With LFLYKELVKAHLGERAA [RPC82] the protein stability index was 2.96 ± 0.09.
LFQVESAPKISSEIDRE [SIR4] gave a protein stability index of 2.61 ± 0.062.
LFQVEYSLEAIKLGSTA [PUP2] gave a protein stability index of 2.32 ± 0.069.
LFSLEKPNLNYFKSILL [SWI1] gave a protein stability index of 1.59 ± 0.055.
Sequence LFVCNKDPDVPLVLLQQ [POP3] has a protein stability index of 2.32 ± 0.077.
Sequence LGEFSITYTPVRHGRAG [RPS15] has a protein stability index of 1.85 ± 0.12.
With LGGDSDEANIEIDPLTG [BRN1] the protein stability index was 3.48 ± 0.27.
For LGIKKEKRIQYAKDILQ [RPB2], the protein stability index was 2.12 ± 0.061.
LGKGGAKRHRKILRDNI [HHF1] gave a protein stability index of 3.21 ± 0.17.
Sequence LGMGKAVEKTLALGCHF [POP7] has a protein stability index of 2.16 ± 0.08.
With LGNEKNQASTSKRVYKI [CDC53] the protein stability index was 2.83 ± 0.12.
Work on LGRLNKLRKIAISKKNK [LIN1] yielded a protein stability index of 1.74 ± 0.096.
LHGLRSFYDAIFFNIPL [YJL039C/NUP192] gave a protein stability index of 2.24 ± 0.042.
With LHLAVGKKWFEVSQFLI [NAS6] the protein stability index was 1.63 ± 0.059.
In the case of LHPYNSRGLFEKKLMQD [YDL116W/NUP84], the protein stability index is reported as 3.28 ± 0.16.
In the case of LHVLVAHKLKKSLDSIP [FAS2], the protein stability index is reported as 2.1 ± 0.088.
Sequence LICPQYGTENKDGEDII [CSL4] has a protein stability index of 3.41 ± 0.13.
LICQNNLNAFVDFSKYN [SRP72] gave a protein stability index of 2.99 ± 0.063.
With LIEEEVEQDEGQCRTEL [YCS4] the protein stability index was 3.53 ± 0.15.
LIEKLQGFSKDTFELIK [YDL116W/NUP84] showed a protein stability index of 3.22 ± 0.093.
Work on LIENGASVRIKDKFNQI [NAS6] yielded a protein stability index of 3.12 ± 0.18.
For LIFGTIASKMSLAPEAD [RPT3], the protein stability index was 2.78 ± 0.064.
Work on LIGSIRFPTKFVTQFRH [RET1] yielded a protein stability index of 1.41 ± 0.057.
With LIIRCRVVRPKSLDAET [RPO21] the protein stability index was 2.52 ± 0.09.
In the case of LIKKAVSVRKHLERNRK [RPS13], the protein stability index is reported as 3.32 ± 0.11.
LIKMSRSPPRPPSLKII [PRP28] gave a protein stability index of 2.3 ± 0.068.
Work on LISDSNINNSSVAEKEE [SWI3] yielded a protein stability index of 1.73 ± 0.13.
LISNAIYGKKTMVIQDE [ECM29] showed a protein stability index of 1.83 ± 0.27.
In the case of LISSSGPIKTPVGACAT [FAS2], the protein stability index is reported as 1.76 ± 0.11.
In the case of LITLFNKGELETQPGCN [RPO31], the protein stability index is reported as 3.26 ± 0.083.
Work on LITTYSKLSKNISFYKL [SIN4] yielded a protein stability index of 2.47 ± 0.12.
Work on LKAKNQEEEGELEHLTK [DSN1] yielded a protein stability index of 3.35 ± 0.066.
Sequence LKDIVGQTSRTVTPAPN [ITC1] has a protein stability index of 3 ± 0.041.
In the case of LKDLMDLCDVVESKFTE [RPC19], the protein stability index is reported as 3.5 ± 0.11.
With LKDSKDFDESLKYLDDL [RPN9] the protein stability index was 3.21 ± 0.14.
In the case of LKFNHGNYSHLMEKNRI [REC8], the protein stability index is reported as 2.47 ± 0.056.
LKGKINNEMKSLQRSKS [SMC1] showed a protein stability index of 3.34 ± 0.19.
With LKHYNGYDINYISKIGE [SWI1] the protein stability index was 2.71 ± 0.049.
For LKIFKIFCIDLEVFHHF [SRB8], the protein stability index was 2.23 ± 0.1.
Work on LKIHQSHLVVPYCPIAS [YMR129W/POM152] yielded a protein stability index of 1.29 ± 0.061.
LKIIHTSVWAGQKRLSQ [PRP8] gave a protein stability index of 1.31 ± 0.12.
